Data from US12269859B2, “Synthetic immune receptors and methods of use thereof” (Angeles Therapeutics, Inc., priority 2016, dated 2025).

B1: 012617-O05 (protein)
chain: MALPVTALLLPLALLLHAARPLEGKPIPNPLLGLDSTGSGEDLKNVFPPEVAVFEPSKAEIAHTQKATLVCLATGFYPDHVELSWWVNGKEVHSGVCTDPQPLKEQPALNDSRYCLSSRLRVSATFWQNPRNHFRCQVQFYGLSENDEWTQDRAKPVTQIVSAEAWGRADCGITSASYHQGVLSATILYEILLGKATLYAVLVSALVLMAMVKRKDSRGRAKRSGSGATNFSLLKQAGDVEENPGPTSMALPVTALLLPLALLLHAARPDILLTQSPATLSLSPGERATLSCKASQNVGTNVAWYQQKPGQPPKLLIYSATYRNSGIPARFSGSGSGTEFTLTITNVQSKDLADYFYFCQYNRYPYTSGGGTKLEIKRGGGGSGGGGSGGGGSQVQLVESGGGLVEPGGSLRLSCMSGYAFSSYWMNWVRQMPGKGLEWMGQIYPGDGDTNYNGKFKGRVTITADESTSTAYMELSSLKAEDTAVYFCARKTISSVVDFYFDNWGQGTLVTVSSTREQKLISEEDGSGIQNPDPAVYQLRDSKSSDKSVCLFTDFDSQTNVSQSKDSDVYITDKCVLDMRSMDFKSNSAVAWSNKSDFACANAFNNSIIPEDTFFPSSDVPCDVKLVEKSFETDTNLNFQNLSVIGFRILLLKVAGFNLLMTLRLWSSRAKRSGSGVKQTLNFDLLKLAGDVESNPGPSRGHMTEYKPTVRLATRDDVPRAVRTLAAAFADYPATRHTVDPDRHIERVTELQELFLTRVGLDIGKVWVADDGAAVAVWTTPESVEAGAVFAEIGPRMAELSGSRLAAQQQMEGLLAPHRPKEPAWFLATVGVSPDHQGKGLGSAVVLPGVEAAERAGVPAFLETSAPRNLPFYERLGFTVTADVEVPEGPRTWCMTRKPGA
B2: 020817-U02 (protein)
chain: MALPVTALLLPLALLLHAARPLEGKPIPNPLLGLDSTGSGEDLKNVFPPEVAVFEPSKAEIAHTQKATLVCLATGFYPDHVELSWWVNGKEVHSGVCTDPQPLKEQPALNDSRYCLSSRLRVSATFWQNPRNHFRCQVQFYGLSENDEWTQDRAKPVTQIVSAEAWGRADCGITSASYHQGVLSATILYEILLGKATLYAVLVSALVLMAMVKRKDSRGRAKRSGSGATNFSLLKQAGDVEENPGPTSMALPVTALLLPLALLLHAARPDILLTQSPATLSLSPGERATLSCRASQSVDNYGISFMNWYQQKPGQPPKLLIYAASNQGSGIPSRFSGSGSGTDFTLTISSLEPEDFAMYFCQQSNEVPRTFGGGTKLEIKGGGGSGGGGSGGGGSQVQLVESGGGLVEPGGSLRLSCMSGYAFSSSWMNWVRQMPGKGLEWMGRIYPGDGDTNYNGKFKERVTITADESTSTAYMELSSLKAEDTAVYFCARSEYWGNYWAMDYWGQGTLVTVSSTREQKLISEEDGSGIQNPDPAVYQLRDSKSSDKSVCLFTDFDSQTNVSQSKDSDVYITDKCVLDMRSMDFKSNSAVAWSNKSDFACANAFNNSIIPEDTFFPSSDVPCDVKLVEKSFETDTNLNFQNLSVIGFRILLLKVAGFNLLMTLRLWSSRAKRSGSGVKQTLNFDLLKLAGDVESNPGPSRGHMTEYKPTVRLATRDDVPRAVRTLAAAFADYPATRHTVDPDRHIERVTELQELFLTRVGLDIGKVWVADDGAAVAVWTTPESVEAGAVFAEIGPRMAELSGSRLAAQQQMEGLLAPHRPKEPAWFLATVGVSPDHQGKGLGSAVVLPGVEAAERAGVPAFLETSAPRNLPFYERLGFTVTADVEVPEGPRTWCMTRKPGA
B3: 070517-G02 (protein)
chain: MALPVTALLLPLALLLHAARPLETPFPSLAPPIMLLVDGKQQMVVVCLVLDVAPPGLDSPIWFSAGNGSALDAFTYGPSPATDGTWTNLAHLSLPSEELASWEPLVCHTGPGAEGHSRSTQPMHLSGEASTARTCPQEPLRGTPGGALWLGVLRLLLFKLLLFDLLLTCSCLCDPAGPLPSPATTTRLRALGSHRLHPATETGGREATSSPRPQPRDRRWGDTPPGRKPGSPVRAKRSGSGVKQTLNFDLLKLAGDVESNPGPTSTMALPVTALLLPLALLLHAARPDIQMTQSPSSLSASVGDRVTITCKASDHINNWLAWYQQKPGQAPKLLIYGATTLETGVPSRFSGSGSGTDYTLTISSLQPEDFATYYCQQSWNTPWTFGQGTKLEIKRGGGGSGGGGSGGGGSQVQLQQPGAELVKPGASVKMSCKASGYAFSSYWINWMKQKPGQGLEWIGQIYPGDGDTNYNGKFKGRATLTADTSSSTAYMQLSSLTSEDSAVYFCARSITTVVGCAMDYWGQGTSVTVSSTRGKPIPNPLLGLDSTGSGEDLKNVFPPEVAVFEPSEAEISHTQKATLVCLATGFYPDHVELSWWVNGKEVHSGVCTDPQPLKEQPALNDSRYCLSSRLRVSATFWQNPRNHFRCQVQFYGLSENDEWTQDRAKPVTQIVSAEAWGRADCGFTSESYQQGVLSATILYEILLGKATLYAVLVSALVLMAMVKRKDSRGRAKRSGSGATNFSLLKQAGDVEENPGPSRGHMTEYKPTVRLATRDDVPRAVRTLAAAFADYPATRHTVDPDRHIERVTELQELFLTRVGLDIGKVWVADDGAAVAVWTTPESVEAGAVFAEIGPRMAELSGSRLAAQQQMEGLLAPHRPKEPAWFLATVGVSPDHQGKGLGSAVVLPGVEAAERAGVPAFLETSAPRNLPFYERLGFTVTADVEVPEGPRTWCMTRKPGA
B4: 070517-H02 (protein)
chain: MALPVTALLLPLALLLHAARPLEGKPIPNPLLGLDSTGSGEDLKNVFPPEVAVFEPSKAEIAHTQKATLVCLATGFYPDHVELSWWVNGKEVHSGVCTDPQPLKEQPALNDSRYCLSSRLRVSATFWQNPRNHFRCQVQFYGLSENDEWTQDRAKPVTQIVSAEAWGRADCGITSASYHQGVLSATILYEILLGKATLYAVLVSALVLMAMVKRKDSRGRAKRSGSGATNFSLLKQAGDVEENPGPTSMALPVTALLLPLALLLHAARPDIQMTQSPSSLSASVGDRVTITCKASDHINNWLAWYQQKPGQAPKLLIYGATTLETGVPSRFSGSGSGTDYTLTISSLQPEDFATYYCQQSWNTPWTFGQGTKLEIKRGGGGSGGGGSGGGGSQVQLQQPGAELVKPGASVKMSCKASGYAFSSYWINWMKQKPGQGLEWIGQIYPGDGDTNYNGKFKGRATLTADTSSSTAYMQLSSLTSEDSAVYFCARSITTVVGCAMDYWGQGTSVTVSSTREQKLISEEDGSGIQNPDPAVYQLRDSKSSDKSVCLFTDFDSQTNVSQSKDSDVYITDKCVLDMRSMDFKSNSAVAWSNKSDFACANAFNNSIIPEDTFFPSSDVPCDVKLVEKSFETDTNLNFQNLSVIGFRILLLKVAGFNLLMTLRLWSSRAKRSGSGVKQTLNFDLLKLAGDVESNPGPSRGHMTEYKPTVRLATRDDVPRAVRTLAAAFADYPATRHTVDPDRHIERVTELQELFLTRVGLDIGKVWVADDGAAVAVWTTPESVEAGAVFAEIGPRMAELSGSRLAAQQQMEGLLAPHRPKEPAWFLATVGVSPDHQGKGLGSAVVLPGVEAAERAGVPAFLETSAPRNLPFYERLGFTVTADVEVPEGPRTWCMTRKPGA
B5: 012417-I04 (protein)
chain: MALPVTALLLPLALLLHAARPLEGKPIPNPLLGLDSTGSGEDLKNVFPPEVAVFEPSKAEIAHTQKATLVCLATGFYPDHVELSWWVNGKEVHSGVCTDPQPLKEQPALNDSRYCLSSRLRVSATFWQNPRNHFRCQVQFYGLSENDEWTQDRAKPVTQIVSAEAWGRADCGITSASYHQGVLSATILYEILLGKATLYAVLVSALVLMAMVKRKDSRGRAKRSGSGATNFSLLKQAGDVEENPGPTSMALPVTALLLPLALLLHAARPDILLTQSPATLSLSPGERATLSCRASQSVDYDGDSYLNWYQQKPGQPPKLLIYDASNLVSGIPPRFSGSGSGTDFTLTISRLEPEDFAVYHCQQSTEDPWTFGGGTKLEIKGGGGSGGGGSGGGGSQVQLVESGGGLVEPGGSLRLSCMSGYAFSSYWMNWVRQMPGKGLEWMGQIWPGDGDTNYNPSLKSRVTITADESTSTAYMELSSLKAEDTAVYFCARRETTTVGRYYYAMDYWGQGTLVTVSSTREQKLISEEDGSGIQNPDPAVYQLRDSKSSDKSVCLFTDFDSQTNVSQSKDSDVYITDKCVLDMRSMDFKSNSAVAWSNKSDFACANAFNNSIIPEDTFFPSSDVPCDVKLVEKSFETDTNLNFQNLSVIGFRILLLKVAGFNLLMTLRLWSSRAKRSGSGVKQTLNFDLLKLAGDVESNPGPSRGHMTEYKPTVRLATRDDVPRAVRTLAAAFADYPATRHTVDPDRHIERVTELQELFLTRVGLDIGKVWVADDGAAVAVWTTPESVEAGAVFAEIGPRMAELSGSRLAAQQQMEGLLAPHRPKEPAWFLATVGVSPDHQGKGLGSAVVLPGVEAAERAGVPAFLETSAPRNLPFYERLGFTVTADVEVPEGPRTWCMTRKPGA
B6: 020717-P08 (protein)
chain: MALPVTALLLPLALLLHAARPDILLTQSPATLSLSPGERATLSCKASQNVGTNVAWYQQKPGQPPKLLIYSATYRNSGIPARFSGSGSGTEFTLTITNVQSKDLADYFYFCQYNRYPYTSGGGTKLEIKRLEGKPIPNPLLGLDSTGSGEDLKNVFPPEVAVFEPSKAEIAHTQKATLVCLATGFYPDHVELSWWVNGKEVHSGVCTDPQPLKEQPALNDSRYCLSSRLRVSATFWQNPRNHFRCQVQFYGLSENDEWTQDRAKPVTQIVSAEAWGRADCGITSASYHQGVLSATILYEILLGKATLYAVLVSALVLMAMVKRKDSRGRAKRSGSGATNFSLLKQAGDVEENPGPTSMDWIWRILFLVGAATGAHSFEQVQLVESGGGLVEPGGSLRLSCMSGYAFSSYWMNWVRQMPGKGLEWMGQIYPGDGDTNYNGKFKGRVTITADESTSTAYMELSSLKAEDTAVYFCARKTISSVVDFYFDNWGQGTLVTVSSAEPKSPDKTHTCPPCPKDPKTREQKLISEEDLGSGIQNPDPAVYQLRDSKSSDKSVCLFTDFDSQTNVSQSKDSDVYITDKCVLDMRSMDFKSNSAVAWSNKSDFACANAFNNSIIPEDTFFPSSDVPCDVKLVEKSFETDTNLNFQNLSVIGFRILLLKVAGFNLLMTLRLWSSRAKRSGSGVKQTLNFDLLKLAGDVESNPGPSRGHMTEYKPTVRLATRDDVPRAVRTLAAAFADYPATRHTVDPDRHIERVTELQELFLTRVGLDIGKVWVADDGAAVAVWTTPESVEAGAVFAEIGPRMAELSGSRLAAQQQMEGLLAPHRPKEPAWFLATVGVSPDHQGKGLGSAVVLPGVEAAERAGVPAFLETSAPRNLPFYERLGFTVTADVEVPEGPRTWCMTRKPGA

Test system: target antigen-expressing cell line
Assay: Jurkat NFAT-GFP assay, coculture with target cell lines expressing the respective target antigen (summary Table 10A)
Type: cell-based, human
Parameters: key: The signs +/−, +, 2+ etc. after the name of the cell lines indicate the relative degree of positivity on the Jurkat-NFAT-GFP assay as measured by the % GFP positive cells; +: relative degree of positivity on the Jurkat-NFAT-GFP assay as measured by the % GFP positive cells; 2+: relative degree of positivity on the Jurkat-NFAT-GFP assay as measured by the % GFP positive cells
Conditions: relative % GFP positive cells; for NFAT-GFP ASSAY Positive Cell lines: RAJI: SIR-expressing Jurkat-NFAT-GFP cells cocultured with RAJI; for NFAT-GFP ASSAY Positive Cell lines: NALM6: SIR-expressing Jurkat-NFAT-GFP cells cocultured with NALM6
Summary of the method: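 Read-out: % GFP+ cells by FACS. SIR-transduced, puromycin-selected Jurkat NFAT-GFP (IL-2 promoter reporter) cocultured ~4–18 h with target line, E:T ~1:2; parental cells as control; graded +/−, +, 2+ relative to parental.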

Molecule | NFAT-GFP ASSAY Positive Cell lines: RAJI | NFAT-GFP ASSAY Positive Cell lines: NALM6
B1 | RAJI (+/−) | –
B2 | RAJI (+), NALM6 | (+/−)
B3 | RAJI (+), NALM6 | (+/−)
B4 | RAJI (2+), NALM6 | (+)
B5 | RAJI (+/−) | –
B6 | RAJI (+) | –
